Experimental data published in US20210130436A1 (published 2021).

Key:
[1] = molecular target: T1, human PD-L1 (human, UniProt Q9NZQ7 19-290); assay: flow cytometry on CHO cells stably expressing PD-L1
T1 construct: also called huPD-L1; CD274

[2] = molecular target: T2, human PD-L1 (huPD-L1), full-length, stably expressed on CHO cells (human, UniProt Q9NZQ7 19-290); assay: flow cytometry, CHO cells expressing huPD-L1
T2 construct: whole, on cells

[3] = molecular target: T3, human CTLA4 (huCTLA4), full-length, stably expressed on CHO cells (human, UniProt P16410 36-223); assay: flow cytometry, CHO cells expressing huCTLA4
T3 construct: whole, on cells

[4] = molecular target: T2, human PD-L1 (huPD-L1), full-length, …; assay: flow cytometry, CHO cells expressing huPD-L1; MFI against WT CD80 of the table
[5] = molecular target: T2, human PD-L1 (huPD-L1), full-length, …; assay: flow cytometry; MFI on PD-L1 CHO cells over MFI on Jurkat cells (CD28)
[6] = molecular target: T3, human CTLA4 (huCTLA4), full-length, …; assay: flow cytometry, CHO cells expressing huCTLA4; MFI against WT CD80 of the table
[7] = molecular target: T4, human CD28, endogenously expressed on Jurkat/IL2 reporter cells (human, UniProt P10747 19-220); assay: flow cytometry, Jurkat/IL2 reporter cells (endogenous CD28), 33.3 nM Fc fusion, PE anti-human Fc
T4 construct: This is the endogenous CD28 of Jurkat cells

[8] = molecular target: T5, human PD-L1 (CD274), full-length, expressed on the surface of CHO cells (human, UniProt Q9NZQ7 19-290); assay: flow cytometry on PD-L1 CHO cells; MFI against WT CD80 ECD-Fc (R&D)
T5 construct: also called huPD-L1; B7-H1

[9] = molecular target: T6, human CTLA-4 (CTLA4), full-length, expressed on the surface of CHO cells (human, UniProt P16410 36-223); assay: flow cytometry, CHO cells stably expressing human CTLA-4, 33.3 nM Fc fusion, PE anti-human Fc
T6 construct: also called huCTLA4

[10] = molecular target: T5, human PD-L1 (CD274), full-length, …; assay: flow cytometry, CHO cells stably expressing human PD-L1, 33.3 nM Fc fusion, PE anti-human Fc
[11] = molecular target: T6, human CTLA-4 (CTLA4), full-length, …; assay: flow cytometry on CTLA-4 CHO cells; MFI against WT CD80 ECD-Fc (R&D)
[12] = molecular target: T5, human PD-L1 (CD274), full-length, …; assay: flow cytometry; MFI on PD-L1 CHO cells over MFI on Jurkat cells (CD28)
[13] = molecular target: T4, human CD28, endogenously expressed on …; assay: flow cytometry on Jurkat cells (CD28); MFI against WT CD80 ECD-Fc (R&D)
[14] = molecular target: T7, human CD28 (human, UniProt P10747 19-220); assay: flow cytometry on Jurkat cells (CD28)
T7 construct: Endogenous CD28 on Jurkat/IL2 reporter cells

T5 sequence (Q9NZQ7 19-290): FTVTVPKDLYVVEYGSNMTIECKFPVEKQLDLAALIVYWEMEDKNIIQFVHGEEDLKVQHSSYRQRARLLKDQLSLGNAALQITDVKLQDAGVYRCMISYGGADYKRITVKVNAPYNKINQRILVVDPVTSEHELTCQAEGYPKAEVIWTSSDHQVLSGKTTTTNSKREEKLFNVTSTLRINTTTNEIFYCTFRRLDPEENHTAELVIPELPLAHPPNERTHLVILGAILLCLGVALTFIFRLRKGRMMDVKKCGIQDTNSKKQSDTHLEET
T2 sequence (Q9NZQ7 19-290): as above
T6 sequence (P16410 36-223): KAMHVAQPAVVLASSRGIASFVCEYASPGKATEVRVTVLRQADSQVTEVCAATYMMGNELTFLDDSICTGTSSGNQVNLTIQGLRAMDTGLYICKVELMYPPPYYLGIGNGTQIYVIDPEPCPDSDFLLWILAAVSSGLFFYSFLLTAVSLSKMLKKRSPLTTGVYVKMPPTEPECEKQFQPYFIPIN
T1 sequence (Q9NZQ7 19-290): as the sequence (Q9NZQ7 19-290) above
T3 sequence (P16410 36-223): as the sequence (P16410 36-223) above

B1: CD80 E35D/M47V/N48K/V68M/K89N IgV-Fc, GS(G4S)5 linker (Fc fusion, not shown: a dimerising Fc or GST)
chain: VIHVTKEVKEVATLSCGHNVSVEELAQTRIYWQKDKKMVLTMMSGDVKIWPEYKNRTIFDITNNLSIMILALRPSDEGTYECVVLKYENDAFKREHLAEVTLSVKADGSGGGGSGGGGSGGGGSGGGGSGGGGS
MFI at 33.3 nM [1]: 22700 MFI

B2: variant CD80 IgV-Fc Q33R/E35D/M38I/M47L/V68M (Fc fusion, not shown: small tags and cut ends; a dimerising Fc or GST)
chain: VIHVTKEVKEVATLSCGHNVSVEELAQTRIYWRKDKKIVLTMMSGDLNIWPEYKNRTIFDITNNLSIMILALRPSDEGTYECVVLKYEKDAFKREHLAEVTLSVKAD
MFI at 33.3 nM [2]: 16500 MFI | MFI at 33.3 nM [3]: 107 MFI | Fold change to WT CD80 [4]: 320 fold | Ratio of PDL1:CD28 [5]: 1110 ratio | Fold change to WT CD80 [6]: 0.1 fold

B3: variant CD80 IgV-Fc E35D/M47V/T62A/A71G/V83A/Y87H/L97M (Fc fusion, not shown: a dimerising Fc or GST)
chain: VIHVTKEVKEVATLSCGHNVSVEELAQTRIYWQKDKKMVLTMMSGDVNIWPEYKNRTIFDIANNLSIVILGLRPSDEGTYECAVLKHEKDAFKREHMAEVTLSVKAD
MFI at 33.3 nM [7]: 305 MFI | Fold change to WT [8]: 9.76 fold | MFI at 33.3 nM [9]: 18100 MFI | MFI at 33.3 nM [10]: 77500 MFI | Fold change to WT CD80 [11]: 0.1 fold | Ratio of PDL1:CD28 [12]: 255 ratio | Fold change to WT [13]: 0.04 fold

B4: variant CD80 IgV-Fc H18Y/E35D/V68M/L97Q (Fc fusion, not shown: a dimerising Fc or GST)
chain: VIHVTKEVKEVATLSCGYNVSVEELAQTRIYWQKDKKMVLTMMSGDMNIWPEYKNRTIFDITNNLSIMILALRPSDEGTYECVVLKYEKDAFKREHQAEVTLSVKAD
MFI at 33.3 nM [7]: 299 MFI | Fold change to WT [8]: 15.3 fold | MFI at 33.3 nM [9]: 173000 MFI | MFI at 33.3 nM [10]: 122000 MFI | Fold change to WT CD80 [11]: 0.97 fold | Ratio of PDL1:CD28 [12]: 407 ratio | Fold change to WT [13]: 0.04 fold

B5: variant CD80 IgV-Fc Q33L/E35D/M43V/M47I/A71G (Fc fusion, not shown: a dimerising Fc or GST)
chain: VIHVTKEVKEVATLSCGHNVSVEELAQTRIYWLKDKKMVLTMVSGDINIWPEYKNRTIFDITNNLSIVILGLRPSDEGTYECVVLKYEKDAFKREHLAEVTLSVKAD
MFI at 33.3 nM [7]: 284 MFI | Fold change to WT [8]: 9.82 fold | MFI at 33.3 nM [9]: 14000 MFI | MFI at 33.3 nM [10]: 78000 MFI | Fold change to WT CD80 [11]: 0.08 fold | Ratio of PDL1:CD28 [12]: 275 ratio | Fold change to WT [13]: 0.04 fold

B6: variant CD80 IgV-Fc V22A/R29H/E35D/D46E/M47I (Fc fusion, not shown: a dimerising Fc or GST)
chain: VIHVTKEVKEVATLSCGHNVSAEELAQTHIYWQKDKKMVLTMMSGEINIWPEYKNRTIFDITNNLSIVILALRPSDEGTYECVVLKYEKDAFKREHLAEVTLSVKAD
MFI at 33.3 nM [7]: 323 MFI | Fold change to WT [8]: 3.2 fold | MFI at 33.3 nM [9]: 77400 MFI | MFI at 33.3 nM [10]: 25400 MFI | Fold change to WT CD80 [11]: 0.43 fold | Ratio of PDL1:CD28 [12]: 79 ratio | Fold change to WT [13]: 0.04 fold

B7: variant CD80 IgV-Fc E35D/D46E/M47V/L97Q (Fc fusion, not shown: a dimerising Fc or GST)
chain: VIHVTKEVKEVATLSCGHNVSVEELAQTRIYWQKDKKMVLTMMSGEVNIWPEYKNRTIFDITNNLSIVILALRPSDEGTYECVVLKYEKDAFKREHQAEVTLSVKAD
MFI at 33.3 nM [7]: 371 MFI | Fold change to WT [8]: 2.45 fold | MFI at 33.3 nM [9]: 305000 MFI | MFI at 33.3 nM [10]: 19500 MFI | Fold change to WT CD80 [11]: 1.71 fold | Ratio of PDL1:CD28 [12]: 52 ratio | Fold change to WT [13]: 0.05 fold

B8: variant CD80 IgV-Fc V22A/E35D/V68E/A71D (Fc fusion, not shown: a dimerising Fc or GST)
chain: VIHVTKEVKEVATLSCGHNVSAEELAQTRIYWQKDKKMVLTMMSGDMNIWPEYKNRTIFDITNNLSIEILDLRPSDEGTYECVVLKYEKDAFKREHLAEVTLSVKAD
notes: The molecule is an Fc fusion, which the general text describes as a dimer
MFI at 33.3 nM [7]: 14000 MFI | Fold change to WT [8]: 0.17 fold | MFI at 33.3 nM [9]: 437000 MFI | MFI at 33.3 nM [10]: 1350 MFI | Fold change to WT CD80 [11]: 2.45 fold | Ratio of PDL1:CD28 [12]: 0 ratio | Fold change to WT [13]: 1.83 fold

B9: variant CD80 IgV-Fc Q33L/E35D/N48K/L85Q/L97Q (Fc fusion, not shown: a dimerising Fc or GST)
chain: VIHVTKEVKEVATLSCGHNVSVEELAQTRIYWLKDKKMVLTMMSGDMKIWPEYKNRTIFDITNNLSIVILALRPSDEGTYECVVQKYEKDAFKREHQAEVTLSVKAD
MFI at 33.3 nM [7]: 279 MFI | Fold change to WT [8]: 5.69 fold | MFI at 33.3 nM [9]: 1180 MFI | MFI at 33.3 nM [10]: 45200 MFI | Fold change to WT CD80 [11]: 0.01 fold | Ratio of PDL1:CD28 [12]: 162 ratio | Fold change to WT [13]: 0.04 fold

B10: variant CD80 IgV-Fc E35D/M47V/A71G/L85M/L97Q (Fc fusion, not shown: a dimerising Fc or GST)
chain: VIHVTKEVKEVATLSCGHNVSVEELAQTRIYWQKDKKMVLTMMSGDVNIWPEYKNRTIFDITNNLSIVILGLRPSDEGTYECVVMKYEKDAFKREHQAEVTLSVKAD
MFI at 33.3 nM [7]: 339 MFI | Fold change to WT [8]: 7.77 fold | MFI at 33.3 nM [9]: 239000 MFI | MFI at 33.3 nM [10]: 61700 MFI | Fold change to WT CD80 [11]: 1.34 fold | Ratio of PDL1:CD28 [12]: 182 ratio | Fold change to WT [13]: 0.04 fold

B11: variant CD80 IgV-Fc Q33L/E35D/M47L/V68M/L85Q/E88D (Fc fusion, not shown: a dimerising Fc or GST)
chain: VIHVTKEVKEVATLSCGHNVSVEELAQTRIYWLKDKKMVLTMMSGDLNIWPEYKNRTIFDITNNLSIMILALRPSDEGTYECVVQKYDKDAFKREHLAEVTLSVKAD
MFI at 33.3 nM [7]: 264 MFI | Fold change to WT [8]: 15.8 fold | MFI at 33.3 nM [9]: 3530 MFI | MFI at 33.3 nM [10]: 126000 MFI | Fold change to WT CD80 [11]: 0.02 fold | Ratio of PDL1:CD28 [12]: 476 ratio | Fold change to WT [13]: 0.03 fold

B12: variant CD80 IgV-Fc Q33L/E35D/M47L/A71G/F92S (Fc fusion, not shown: a dimerising Fc or GST)
chain: VIHVTKEVKEVATLSCGHNVSVEELAQTRIYWLKDKKMVLTMMSGDLNIWPEYKNRTIFDITNNLSIVILGLRPSDEGTYECVVLKYEKDASKREHLAEVTLSVKAD
MFI at 33.3 nM [7]: 366 MFI | Fold change to WT [8]: 3.53 fold | MFI at 33.3 nM [9]: 2110 MFI | MFI at 33.3 nM [10]: 28000 MFI | Fold change to WT CD80 [11]: 0.01 fold | Ratio of PDL1:CD28 [12]: 77 ratio | Fold change to WT [13]: 0.05 fold

B13: variant CD80 IgV-Fc Q33L/E35D/M43I/L85Q/R94W (Fc fusion, not shown: a dimerising Fc or GST)
chain: VIHVTKEVKEVATLSCGHNVSVEELAQTRIYWLKDKKMVLTMISGDMNIWPEYKNRTIFDITNNLSIVILALRPSDEGTYECVVQKYEKDAFKWEHLAEVTLSVKAD
MFI at 33.3 nM [7]: 272 MFI | Fold change to WT [8]: 3.65 fold | MFI at 33.3 nM [9]: 1080 MFI | MFI at 33.3 nM [10]: 29000 MFI | Fold change to WT CD80 [11]: 0.01 fold | Ratio of PDL1:CD28 [12]: 107 ratio | Fold change to WT [13]: 0.04 fold

B14: variant CD80 IgV-Fc H18Y/Y31H/E35D/M47V/A71G/L85Q (Fc fusion, not shown: a dimerising Fc or GST)
chain: VIHVTKEVKEVATLSCGYNVSVEELAQTRIHWQKDKKMVLTMMSGDVNIWPEYKNRTIFDITNNLSIVILGLRPSDEGTYECVVQKYEKDAFKREHLAEVTLSVKAD
MFI at 33.3 nM [7]: 268 MFI | Fold change to WT [8]: 9.61 fold | MFI at 33.3 nM [9]: 3840 MFI | MFI at 33.3 nM [10]: 76400 MFI | Fold change to WT CD80 [11]: 0.02 fold | Ratio of PDL1:CD28 [12]: 285 ratio | Fold change to WT [13]: 0.04 fold

B15: CD80 E35D/M47V/N48K/V68M/K89N IgV-Fc, GS(G4S)3 linker (Fc fusion, not shown: a dimerising Fc or GST)
chain: VIHVTKEVKEVATLSCGHNVSVEELAQTRIYWQKDKKMVLTMMSGDVKIWPEYKNRTIFDITNNLSIMILALRPSDEGTYECVVLKYENDAFKREHLAEVTLSVKADGSGGGGSGGGGSGGGGS
MFI at 33.3 nM [14]: 2110 MFI | MFI at 33.3 nM [1]: 24200 MFI
